Assay results reported in article PMC5639367, “Structure‐Guided Design of Peptides as Tools to Probe the Protein–Protein Interaction between Cullin‐2 and Elongin BC Substrate Adaptor in Cullin RING E3 Ubiquitin Ligases” (Chemmedchem, 2017).

Target: VBC ternary complex (pVHL, Elongin B, Elongin C) (UniProt P40337)
Assay: BLI; biotinylated VBC (25 ug/mL) immobilised on Super Streptavidin biosensors, peptides titrated; Octet RED384; 25 °C; 20 mM HEPES pH 7.6, 100 mM NaCl, 1 mM DTT, 0.02 % Tween-20; reference tips subtracted; 1:1 model

Sequence of peptide D (8-mer Cul2 peptide, Leu3 replaced by tyrosine) (Q13617 whole entry, looked up, tested part not stated): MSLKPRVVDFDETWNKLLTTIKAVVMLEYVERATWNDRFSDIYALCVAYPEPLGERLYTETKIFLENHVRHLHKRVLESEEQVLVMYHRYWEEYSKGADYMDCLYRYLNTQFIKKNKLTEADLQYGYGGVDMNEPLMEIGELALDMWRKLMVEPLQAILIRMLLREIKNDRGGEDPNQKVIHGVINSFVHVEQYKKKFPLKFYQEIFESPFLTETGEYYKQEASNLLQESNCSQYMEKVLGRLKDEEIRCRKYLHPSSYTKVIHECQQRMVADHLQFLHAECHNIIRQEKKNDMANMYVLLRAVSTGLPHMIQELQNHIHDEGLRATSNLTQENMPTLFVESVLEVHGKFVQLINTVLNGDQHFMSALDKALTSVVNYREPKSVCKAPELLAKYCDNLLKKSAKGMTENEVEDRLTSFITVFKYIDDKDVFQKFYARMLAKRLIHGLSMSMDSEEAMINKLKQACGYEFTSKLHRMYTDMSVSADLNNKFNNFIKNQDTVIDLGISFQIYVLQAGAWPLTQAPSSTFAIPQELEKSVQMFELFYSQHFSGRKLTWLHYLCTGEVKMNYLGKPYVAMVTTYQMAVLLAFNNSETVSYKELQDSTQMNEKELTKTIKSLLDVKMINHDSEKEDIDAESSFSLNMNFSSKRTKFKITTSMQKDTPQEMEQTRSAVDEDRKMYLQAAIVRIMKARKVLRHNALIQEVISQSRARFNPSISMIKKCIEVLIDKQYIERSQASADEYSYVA
Sequence of peptide C (8-mer Cul2 peptide, Leu3 replaced by phenylalanine) (Q13617 whole entry, looked up, tested part not stated): as above

| Kd | Substance |
| --- | --- |
| 7400 µM | peptide D (8-mer Cul2 peptide, Leu3 replaced by tyrosine) (from UniProt Q13617 1-8) |
| 1900 µM | peptide F (8-mer Cul2 peptide, Leu3 replaced by norvaline) (from UniProt Q13617 1-8) |
| 900 µM | peptide G (8-mer Cul2 peptide, Leu3 replaced by tert-butylglycine) (from UniProt Q13617 1-8) |

More lines, now with the values behind:

| Substance | Kd |
| --- | --- |
| peptide C (8-mer Cul2 peptide, Leu3 replaced by phenylalanine) (from UniProt Q13617 1-8) | 3100 µM |
| peptide H (8-mer Cul2 peptide, Leu3 replaced by phenylglycine) (from UniProt Q13617 1-8) | 2100 µM |
| peptide I (8-mer Cul2 peptide, Leu3 replaced by cyclohexhylglycine) (from UniProt Q13617 1-8) | 8900 µM |
| peptide K (8-mer Cul2 peptide, Leu3 replaced by thioproline) (from UniProt Q13617 1-8) | 2200 µM |
